Assay results from paper PMC5807433, “PP5 (PPP5C) is a phosphatase of Dvl2” (Scientific Reports, 2018).

Molecular target: T1, FLAG-Dvl2 (full-length human Dishevelled 2) (human, UniProt O14641 1-736)
T1 construct: Dishevelled 2 (Dvl2), human, full length; also called FLAG-tagged Dvl2; full-length Dvl2; source: HEK293T, transfected (pCS2+), in lysate; also purified from transfected HEK293T with FLAG M2 beads and eluted with FLAG peptide; not shown: FLAG, N-terminal, kept
T1 sequence (looked up): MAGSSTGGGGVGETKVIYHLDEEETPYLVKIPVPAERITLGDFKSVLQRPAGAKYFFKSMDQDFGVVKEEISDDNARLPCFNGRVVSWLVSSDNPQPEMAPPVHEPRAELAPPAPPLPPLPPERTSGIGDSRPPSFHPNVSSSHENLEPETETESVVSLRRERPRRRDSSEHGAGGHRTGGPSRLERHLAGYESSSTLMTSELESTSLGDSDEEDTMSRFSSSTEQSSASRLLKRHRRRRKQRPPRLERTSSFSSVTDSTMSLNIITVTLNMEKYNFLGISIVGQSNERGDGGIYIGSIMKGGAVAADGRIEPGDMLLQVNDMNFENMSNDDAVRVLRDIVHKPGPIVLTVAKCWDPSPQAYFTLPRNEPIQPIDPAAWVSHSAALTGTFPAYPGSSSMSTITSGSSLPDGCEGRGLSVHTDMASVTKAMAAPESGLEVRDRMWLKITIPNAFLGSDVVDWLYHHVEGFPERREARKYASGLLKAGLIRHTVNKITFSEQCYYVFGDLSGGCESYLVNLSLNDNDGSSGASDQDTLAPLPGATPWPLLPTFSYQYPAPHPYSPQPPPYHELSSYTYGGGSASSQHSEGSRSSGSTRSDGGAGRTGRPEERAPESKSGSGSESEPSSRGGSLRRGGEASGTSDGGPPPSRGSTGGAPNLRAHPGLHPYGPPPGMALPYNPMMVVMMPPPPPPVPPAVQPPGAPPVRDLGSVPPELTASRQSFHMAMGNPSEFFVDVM
Test: pull-down; GST pull-down: FLAG-Dvl2 purified from transfected HEK293T incubated with PP5 protein purified from E. coli and Glutathione Sepharose 4B beads; GST as negative control
Details: both partners purified

- binding result: binds
B1: GST-PP5 (wild type) (enzyme, human, UniProt P53041 1-499, looked up)
chain: MAMAEGERTECAEPPRDEPPADGALKRAEELKTQANDYFKAKDYENAIKFYSQAIELNPSNAIYYGNRSLAYLRTECYGYALGDATRAIELDKKYIKGYYRRAASNMALGKFRAALRDYETVVKVKPHDKDAKMKYQECNKIVKQKAFERAIAGDEHKRSVVDSLDIESMTIEDEYSGPKLEDGKVTISFMKELMQWYKDQKKLHRKCAYQILVQVKEVLSKLSTLVETTLKETEKITVCGDTHGQFYDLLNIFELNGLPSETNPYIFNGDFVDRGSFSVEVILTLFGFKLLYPDHFHLLRGNHETDNMNQIYGFEGEVKAKYTAQMYELFSEVFEWLPLAQCINGKVLIMHGGLFSEDGVTLDDIRKIERNRQPPDSGPMCDLLWSDPQPQNGRSISKRGVSCQFGPDVTKAFLEENNLDYIIRSHEVKAEGYEVAHGGRCVTVFSAPNYCDQMGNKASYIHLQGSDLRPQFHQFTAVPHPNVKPMAYANTLLQLGMM
notes: Protein phosphatase 5 (PP5, PPP5C), wild type; Probably full length; also called PP5 protein purified from E. coli; bacterially expressed and purified PP5; source: E. coli BL21 (pPGH vector, IPTG), purified with Glutathione Sepharose 4B beads; not shown: GST, N-terminal, kept
